Test results from the domain aggregation screens of Martell et al. (2025).

Assay: soluble fraction after stress (log2 fold change); higher = more stays soluble; pooled small domains, quantitative proteomics
Conditions: stress: 75 degC
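Also: 20 min heating vs room temperature control held 20 min.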

Row | Sequence | soluble fraction (log2)
1 | HMDQINNDLRKLIEFLPEDQKTVLKMRHFQEMSFKEIAKATGVSINTALGRMRYALINLRKLIEENEI | -2.06
2 | HMDQPLIEPLSERELEVLSLIAAGYSNAEIAERLVIAVGTVKRHINNLYGKLGAGSRTQALAIAREIGLM | -0.107
3 | HMDQTKYDAIITEAKKLTAEGQYKESEEKLATIPVSDLGKPHYSIVKETVEKLNNQNNEGLKRQEEVAVE | -0.0329
4 | HMDQVLHQLVEVLRRSEIRISPAETLDAFKVLRNVGIDNKSLLREALALTLAKSIHEKIIFYETFDEFFT | -1.46
5 | HMDRADIDAVDAEWVRATMERLGLRAKHIESHTGISKSTLSILLNGHRPLTRWHKIAFYYLFKHIEF | -2.76
6 | HMDRDQNVEEGQRSLKSEMGRFGLLIANMDDLAERVNYGNAEDMYAAIGAGDLRLMQVVHAAEEMLG | 0.097
7 | HMDRENNITAGREILEKELSRLALNMKMVNLQDYAARFNVKHSDDILAGIGAGDIRPAHIVNAIAEKLT | -0.0151
8 | HMDREQLELYVGEVRVLQVGELRRIAIGNGKVLQASALDRGQLLLIPEAPGQSVLYLWTRDGTERHLSISV | 0.0104
9 | HMDRESFIKLGRELARSAFAHVGQKSTEKALETAADVLRLKDPNEVLARLGSAELTGRQVVQAIYPELI | -0.277
10 | HMDRFRYYITEDSVQRGTYPYVDETTLKRFTSQLHKYEQGMISAYGYLEYSKPLTAEQIKDYTLMPSP | -0.0579
11 | HMDRFVLQLSKRYYDSSIEGVRKALAAFPVKTELLDQDRGGRPFYHENGKENEPVFRIMFHPEEGM | -0.421
12 | HMDRIISTPMPGRVVKIPVTEGEPVAKGATVITISAMKMESEYKSPIDGIVKKIHVSEGDNINANQPLIEI | -0.51
13 | HMDRKFFYEDQYQDYLGEELKVSFFDTDNKKTVRGTLSEVTPHGIKINLEQETQEIPFSSIIQANLI | 0.224
14 | HMDRPARDEAQSWLADVLADGPVPTAEIREEAEAAGLAWRTIQRARIALSVEPIRGDGRNAWLWQLPG | -1.49
15 | HMDRQIQITVAENEAGQRLDAFLAAKIPDMSRSYIQKLIEDGLILVNGQSTKGKVKTYSGMNIEVYMPE | -0.0484
16 | HMDRRDEYHQHLLRLLLSGEIRDKDELQRRKVKLSGEYGLAGVPKNSETLALVPPDRLPEVLDILR | -0.214
17 | HMDRSIGDIIAELRDLSAEQVERVLAHQRETGVRFGEAAVALGYASKEDVLFALSQQFHYPYAPEE | 0.0114
18 | HMDRSVTAAELRLAAMDLLARREHGSQELEAKLSRRFHKRHYDVELLRSVIEQLTVEGLLSDERFAVS | -0.951
19 | HMDRVTYPVSFNGKVRFQLELDAGMNAKEVETAALGHEKTAAQIEGKTIRKVIVVPGRIINIVV | -1.22
20 | HMDRWTPLVVAVLSRGSHRFGELRAAIGGITPKVLTDTLRSMERDGLITRDQAPGVPPRVDYALTPLGS | -1.43
21 | HMDSALKDDLNAFVKKLDVESQTLFMRRYFLGESVSSLASRFEMSEDNVGVKLFRIRAKLKKYLTGKGYD | -3.1
22 | HMDSAMMDLVMRVQLALFTKGYDVGIIDGKIGPKTRAQIKRYQSDNRLSSTGTLTTSLLTSLGIQ | -3.16
23 | HMDSATDRVALKELLNTLSARERTIITLRYFSDQTQTQVAKSLGISQVQVSRLENAILQRLRKL | -2.08
24 | HMDSDELEAFRLITSVNGVGPKLGIAILSEFTAEKLTVFIASGDAKALTAASGVGIKLAQRIVLELKDKVG | -0.351

Row | Sequence | soluble fraction (log2)
25 | HMDSDFIKIEVLFNERNRLDLKAMMEASGFTDRGQFLSIMADLTGDENWDRNLDRGDIFYLPRSFTI | -1.28
26 | HMDSDIGQQLKILLTVGTFMPSTELKAIAQQFGMKKPTDLKEWVELESDTQRIKGNPTKGYWINEINDL | -0.682
27 | HMDSEEVYQMTKHKMDAAQISVAKRIHINLVLVKLLELHHLGYDLRHYHAQHHAFIKRLNLPEYFRFD | -1.67
28 | HMDSEKVLTNLKEELVLQLSNIEPYGYVPSQYWYSKVQRVQSVQELGKYVDGDLEAFVMKYAEDWESQK | -0.115
29 | HMDSGFMRTTQSYTVARLAEIFRLSGEDYLAVLREYDGWYQDLTSTKDLIRKGSDVPVPEGV | -1.67
30 | HMDSGLEQAKTAALENAELETSQVTFIKAELDYDDGKKVYEIEFVTSAMKYEYQVKADDFSILEMSKETIE | -0.755
31 | HMDSHSAESVRQRIKDMIAAEASKSILSDDTIVENLKSEGIEIARRTVAKYRESLNIPSSIQRRRIARSEA | -0.19
32 | HMDSILMPGVVNKELREALAILKNEGIGWADPEYASSTVTRNYVISTDPVEGIELAPGQKVRLVVSLGPKP | -0.326
33 | HMDSIQMKNNSILYYGNTAGYLDAKRNTAVVDPMFRTDEMESYLSEQKGLSVEWASGTYDRLT | 0.0501
34 | HMDSLEIEEPITVKSLSAASGLKISDIIRKLMQEGIMATANQVIDREQAEAVLIDYNVDLVVKR | -0.281
35 | HMDSLNWVEKIINTLPEQQRLIIQMRDIEQYEFAEIAKILEMNETAIRVALSRARKTIREFMIKTH | -2.07
36 | HMDSLSLTELRIDSASPWIGNRISDFSPYAGELVIMIIRGEETIVPNGDTIILDKDLLVIYSS | -2.11
37 | HMDSNFNYELVGFRLDDMGLNSSVIVKRNNQEFVIQKGDLLENKYLLNSVTKKNINFSYLGKNYQI | -1.07
38 | HMDSNPLSEREQEVLQLVAKGASNQTIAEQLFLSNGTIRNYMTAIFNKLNANNRTDAVRIARENGW | -0.207
39 | HMDSPVEEWANRGLAYDPSLVTETMAKLYAKQGQIGLARKAFKRLALIYPEKSVYFAFQLKKLSNN | -2.01
40 | HMDSPVLTAEIKALIDKELEQNAVKLATGLKKQRKRATDIHDALIRQGHEVSYRTVVRYIRNKTAQTS | -0.751
41 | HMDSTSEILKVIQNIVKKEDPYHPLSDDKISNLLNDLDYQISRRTVAKYRDILTIPSSSKRRKL | -0.256
42 | HMDSVEMFSPILGMNANMDLDTLTQTRDKLLEKYKDDEQLIGLVNKTYDYFNEILLKQFLIEELEKNE | 0.0898
43 | HMDSVFGVVTSSDGVKLRKEASTISKVLTVLPYGTEVDVDRIGSEWIRIVTDGGQKGYVSADYLAVREGER | 0.682
44 | HMDSVPEEQLRQLALDKAKEVKRWGQPVELAKMNAHDRRIIHINLQDDPEIETRSEGEGALKSVIISLKK | 0.0979
45 | HMDSYADVLSDYRGKYKTNTISGLKGLRDKIREDMLAAADSLDFEKAALLRDEMNDLNKKIELKEKT | ≥ 1.04
46 | HMDTERLYAYAWQTHLKQFGLNISEEEIRQFVGVDDRIVHSFYAKTVPLDDFENTMFSLGEIIQQSL | -2.58
47 | HMDTFNVIARQEIDGILYEYKIMTVEDYKNQSPENLAVIYENIKAVMEQYDLSEDDADAILVDLLG | -1.14
48 | HMDTIRINSGSTVKEVAEYLGIPVPEVIKKLMSMGELATLTKTLSDDHIEVLAEEFEKKIKIVHVGEEAD | -0.458

Row | Sequence | soluble fraction (log2)
49 | HMDTITDSYTLEKGKLRAKVMEYELPESKKKEYSATFEYRGVYYHMIGIIEKADFEEILKNLHFP | -0.168
50 | HMDTIVVAARSIQARQTLTESDLRVEEQEIGAASDKYYTDIAEAVGLVSSRRLSPGQPILRTM | -0.352
51 | HMDTLKDFISGVSIVFENKYSVGDNVTIGDFRGDVIELGMKTTKIRAYTGEVLIIPNHLVEKVINH | -1.56
52 | HMDTLRARQEAAYRFLSAIAGDWRNYEEANRALFAGDAARFQDLTESWPADVRDHARHLASAAFSS | -0.8
53 | HMDTNAIIGLRIKNLRTEKKYTLKYLSENTGLSIGFLSQLERGMTSIAIDSLDKISKVLDVELSSFFT | -1.69
54 | HMDTNELIDRYVNEVGQHLPRKTRADIEMELRSLLLDTLEEQSGGEPTPKMAAEVLREFGHPEEIAAQYH | -0.386
55 | HMDTRKKLEQIFKLFDKTGTGMVNIDEFKSVLKLFMEEIDEKFGNYFIAYFDENGDGKIEFEEFADVVL | -0.444
56 | HMDTSAHEVLSAIRSIIEDEDKRHPLSDEAITSRLSQQGYDIARRTVAKYRERLGLPVARLRRE | -0.26
57 | HMDVALEALDESDGAVRLQFSGALQTYLNDSTTAASLEAISKTFRAFYEAAGRPVDTLEVYAAGEPVT | 0.105
58 | HMDVDKQLDQLLAAMIPDKSLRQTIKTKAFNELVDNELADKDISSWTKQTMDVFMTRAEDMFGAM | -0.274
59 | HMDVEMLIDKYQLNDSEAEVLRFMKKNRQSLKTIGIRDVAKATYVSTATIINMAKKIGYSGYSELVFALGN | -1.69
60 | HMDVNAQAGYDKLQSNQLDGARHDYEQALKTDPNNVDTLLALAAIAQRQGRSADADGYRQRAIDAD | -0.378
61 | HMDVNHVIIDHKGNSIQAIIDSIDLDNVYYQSKIKKESEVIDIDKVYFIFNDFDRVYHYDWSYYENL | -0.166
62 | HMDVNLSIRSGETIGIIGSTGSAKSTLVQLIPRLYDTTEGEVLVGGVNVKNYDLEALRNSVAMVLQKN | -0.112
63 | HMDVPNLVGEEIKDVRRTLRHFQLEVIGEGSKIVSQVPKHGQRLPENTTIRVYLN | -0.0339
64 | HMDVPNLVGKTLEEAENELKKLNIRYNVTERADEAPKDTVIEQSPKPYEAMEPGTVVNLVISSGPA | ≥ 1.04
65 | HMDVQPHIYLRKLDQFWPADLHSLILYTLDGRRLWSADSGNIPALPHRASSLVILEATWDNGQRTRRKQFL | -1.75
66 | HMDVRKSISDLKALGLSDAAVTVYGTIGNKPVHIDKIVSELGIPVFKVLTALTQLEMKGLVTAMQGRMYVL | -2.13
67 | HMDVSASEVGLTGRQTDVLSLMVKGRSNRDIAELLGLSEGTVKIHITAIFKALGVASRTQALVAAARLGLK | -0.82
68 | HMDVSLVEQTQRDILEYISKNNSNAQLPKEQEFVGLLGVSRVVVREALSRLRALGIIETKRKKGTVVVVPE | -1.09
69 | HMDWVAYGAELRRRRLLAGWSVAELSRRTNLSTSIIYQVEQARTRLRPSQLTLAKLAAALGMP | -3.1
70 | HMDYAQAQRQAESAIALRPDVERLRLLLIYALQKQGKLREAEQAAADAIKSGLDTPALRQARANLRP | -0.732
